These results are taken from PMC12102759 (2025).

To fix the notation:
B1: CBL peptide 540-555 (E3 ubiquitin-protein ligase CBL), 16-mer library wild type / YES SH3 (YES1 SH3 domain, residues 90-152) (parent complex)
chain 1: RDLPPPPPPDRPYSVG
chain 2: not shown

The variants in the assay derive from B1. Briefly: proteomic peptide phage display deep mutational scan (ProP-PD DMS): M13 P8 16-mer library selected against immobilised GST-tagged bait for four days (rounds), NGS of the eluted pools per day and pseudo-replica; bait immobilised on MaxiSorp plates (10 µg), library pre-cleared on GST, 2 h binding at 4 °C, five washes; one round per day, days 1-4; value from days 2 and 3.
As for chain 1 D10H, the screen value is 0.00429 average fractional NGS count over selection days 2 and 3 (reads of this peptide / all reads for the bait, averaged over ….

Consider chain 1 D10P, for which the screen value is 0.000173 average fractional NGS count over selection days 2 and 3 (reads of this peptide / all reads for the bait, averaged over ….

Take chain 1 D10W: the screen value is 0.00158 average fractional NGS count over selection days 2 and 3 (reads of this peptide / all reads for the bait, averaged over ….

chain 1 D10M: the screen value was 0.00163 average fractional NGS count over selection days 2 and 3 (reads of this peptide / all reads for the bait, averaged over ….

With chain 1 R11F, the screen value is 0.00146 average fractional NGS count over selection days 2 and 3 (reads of this peptide / all reads for the bait, averaged over ….

For the variant chain 1 R11D, the screen value is 0.000209 average fractional NGS count over selection days 2 and 3 (reads of this peptide / all reads for the bait, averaged over ….

In the case of chain 1 R11H, the screen value was 0.000484 average fractional NGS count over selection days 2 and 3 (reads of this peptide / all reads for the bait, averaged over ….

For chain 1 R11S, the screen value is 0.000485 average fractional NGS count over selection days 2 and 3 (reads of this peptide / all reads for the bait, averaged over ….

In the case of chain 1 R11T, the screen value was 0.00408 average fractional NGS count over selection days 2 and 3 (reads of this peptide / all reads for the bait, averaged over ….

chain 1 R11G: the screen value was 0.00318 average fractional NGS count over selection days 2 and 3 (reads of this peptide / all reads for the bait, averaged over ….

As to chain 1 R11K, the screen value was 0.000739 average fractional NGS count over selection days 2 and 3 (reads of this peptide / all reads for the bait, averaged over ….

Regarding chain 1 R11L, the screen value is 0.00999 average fractional NGS count over selection days 2 and 3 (reads of this peptide / all reads for the bait, averaged over ….

Take chain 1 R11A: the screen value was 8.11e-05 average fractional NGS count over selection days 2 and 3 (reads of this peptide / all reads for the bait, averaged over ….

Consider chain 1 R11V, for which the screen value is 0.00622 average fractional NGS count over selection days 2 and 3 (reads of this peptide / all reads for the bait, averaged over ….

Take chain 1 R11P: the screen value is 0.00145 average fractional NGS count over selection days 2 and 3 (reads of this peptide / all reads for the bait, averaged over ….

In the case of chain 1 R11M, the screen value was 0.00776 average fractional NGS count over selection days 2 and 3 (reads of this peptide / all reads for the bait, averaged over ….

As to chain 1 D2I, the screen value is 0.00123 average fractional NGS count over selection days 2 and 3 (reads of this peptide / all reads for the bait, averaged over ….

Regarding chain 1 D2E, the screen value is 0.0027 average fractional NGS count over selection days 2 and 3 (reads of this peptide / all reads for the bait, averaged over ….

As for chain 1 D2H, the screen value is 0.000405 average fractional NGS count over selection days 2 and 3 (reads of this peptide / all reads for the bait, averaged over ….

Regarding chain 1 D2Q, the screen value was 0.00168 average fractional NGS count over selection days 2 and 3 (reads of this peptide / all reads for the bait, averaged over ….

In the case of chain 1 P12Q, the screen value is 0.0162 average fractional NGS count over selection days 2 and 3 (reads of this peptide / all reads for the bait, averaged over ….

With chain 1 P12I, the screen value is 0.00216 average fractional NGS count over selection days 2 and 3 (reads of this peptide / all reads for the bait, averaged over ….

Take chain 1 P12H: the screen value is 0.00204 average fractional NGS count over selection days 2 and 3 (reads of this peptide / all reads for the bait, averaged over ….

chain 1 P12A: the screen value was 0.00443 average fractional NGS count over selection days 2 and 3 (reads of this peptide / all reads for the bait, averaged over ….

On to chain 1 V15M, for which the screen value is 0.00453 average fractional NGS count over selection days 2 and 3 (reads of this peptide / all reads for the bait, averaged over ….

As to chain 1 V15T, the screen value was 0.000212 average fractional NGS count over selection days 2 and 3 (reads of this peptide / all reads for the bait, averaged over ….

chain 1 V15L: the screen value was 0.000286 average fractional NGS count over selection days 2 and 3 (reads of this peptide / all reads for the bait, averaged over ….

As for chain 1 V15A, the screen value is 0.00486 average fractional NGS count over selection days 2 and 3 (reads of this peptide / all reads for the bait, averaged over ….

Regarding chain 1 V15H, the screen value was 0.00504 average fractional NGS count over selection days 2 and 3 (reads of this peptide / all reads for the bait, averaged over ….

Turning to chain 1 V15N, the screen value was 0.00181 average fractional NGS count over selection days 2 and 3 (reads of this peptide / all reads for the bait, averaged over ….

On to chain 1 V15E, for which the screen value is 0.00362 average fractional NGS count over selection days 2 and 3 (reads of this peptide / all reads for the bait, averaged over ….

As for chain 1 V15S, the screen value was 0.00131 average fractional NGS count over selection days 2 and 3 (reads of this peptide / all reads for the bait, averaged over ….

Regarding chain 1 V15G, the screen value was 0.000446 average fractional NGS count over selection days 2 and 3 (reads of this peptide / all reads for the bait, averaged over ….

Regarding chain 1 V15W, the screen value is 0.0167 average fractional NGS count over selection days 2 and 3 (reads of this peptide / all reads for the bait, averaged over ….

Regarding chain 1 V15I, the screen value is 7.73e-05 average fractional NGS count over selection days 2 and 3 (reads of this peptide / all reads for the bait, averaged over ….

On to chain 1 P4L, for which the screen value was 0.000253 average fractional NGS count over selection days 2 and 3 (reads of this peptide / all reads for the bait, averaged over ….

As for chain 1 P4M, the screen value is 0.000259 average fractional NGS count over selection days 2 and 3 (reads of this peptide / all reads for the bait, averaged over ….

Regarding chain 1 P4Q, the screen value was 0.000154 average fractional NGS count over selection days 2 and 3 (reads of this peptide / all reads for the bait, averaged over ….

Consider chain 1 P4E, for which the screen value was 0.000136 average fractional NGS count over selection days 2 and 3 (reads of this peptide / all reads for the bait, averaged over ….

In the case of chain 1 P4H, the screen value is 8.18e-05 average fractional NGS count over selection days 2 and 3 (reads of this peptide / all reads for the bait, averaged over ….

As for chain 1 P8S, the screen value is 0.00243 average fractional NGS count over selection days 2 and 3 (reads of this peptide / all reads for the bait, averaged over ….

Turning to chain 1 P8W, the screen value is 0.00267 average fractional NGS count over selection days 2 and 3 (reads of this peptide / all reads for the bait, averaged over ….

For chain 1 P8K, the screen value was 0.000519 average fractional NGS count over selection days 2 and 3 (reads of this peptide / all reads for the bait, averaged over ….

For the variant chain 1 P8F, the screen value is 0.00526 average fractional NGS count over selection days 2 and 3 (reads of this peptide / all reads for the bait, averaged over ….

As to chain 1 P8I, the screen value was 0.000285 average fractional NGS count over selection days 2 and 3 (reads of this peptide / all reads for the bait, averaged over ….

As to chain 1 P8M, the screen value was 0.00164 average fractional NGS count over selection days 2 and 3 (reads of this peptide / all reads for the bait, averaged over ….

Regarding chain 1 P8N, the screen value is 0.00013 average fractional NGS count over selection days 2 and 3 (reads of this peptide / all reads for the bait, averaged over ….

As to chain 1 P8V, the screen value is 0.0212 average fractional NGS count over selection days 2 and 3 (reads of this peptide / all reads for the bait, averaged over ….

Consider chain 1 P8E, for which the screen value is 0.00198 average fractional NGS count over selection days 2 and 3 (reads of this peptide / all reads for the bait, averaged over ….

Regarding chain 1 P8L, the screen value is 0.000348 average fractional NGS count over selection days 2 and 3 (reads of this peptide / all reads for the bait, averaged over ….

For the variant chain 1 L3F, the screen value is 9.32e-05 average fractional NGS count over selection days 2 and 3 (reads of this peptide / all reads for the bait, averaged over ….

For chain 1 L3K, the screen value was 0.000147 average fractional NGS count over selection days 2 and 3 (reads of this peptide / all reads for the bait, averaged over ….

As for chain 1 L3M, the screen value is 0.00032 average fractional NGS count over selection days 2 and 3 (reads of this peptide / all reads for the bait, averaged over ….

As for chain 1 L3S, the screen value was 6.99e-05 average fractional NGS count over selection days 2 and 3 (reads of this peptide / all reads for the bait, averaged over ….

As for chain 1 L3E, the screen value was 5.03e-05 average fractional NGS count over selection days 2 and 3 (reads of this peptide / all reads for the bait, averaged over ….

Take chain 1 L3W: the screen value was 0.000182 average fractional NGS count over selection days 2 and 3 (reads of this peptide / all reads for the bait, averaged over ….

As for chain 1 L3A, the screen value was 0.000233 average fractional NGS count over selection days 2 and 3 (reads of this peptide / all reads for the bait, averaged over ….

Consider chain 1 R1F, for which the screen value was 0.000504 average fractional NGS count over selection days 2 and 3 (reads of this peptide / all reads for the bait, averaged over ….

Consider chain 1 R1T, for which the screen value is 0.000703 average fractional NGS count over selection days 2 and 3 (reads of this peptide / all reads for the bait, averaged over ….

Turning to chain 1 R1H, the screen value was 0.0063 average fractional NGS count over selection days 2 and 3 (reads of this peptide / all reads for the bait, averaged over ….

Turning to chain 1 R1Q, the screen value was 7.8e-05 average fractional NGS count over selection days 2 and 3 (reads of this peptide / all reads for the bait, averaged over ….

For the variant chain 1 R1P, the screen value is 0.000732 average fractional NGS count over selection days 2 and 3 (reads of this peptide / all reads for the bait, averaged over ….

As to chain 1 R1L, the screen value is 0.000379 average fractional NGS count over selection days 2 and 3 (reads of this peptide / all reads for the bait, averaged over ….

In the case of chain 1 R1M, the screen value was 0.00223 average fractional NGS count over selection days 2 and 3 (reads of this peptide / all reads for the bait, averaged over ….

For chain 1 P5R, the screen value is 0.00132 average fractional NGS count over selection days 2 and 3 (reads of this peptide / all reads for the bait, averaged over ….

As to chain 1 P5Q, the screen value is 0.00016 average fractional NGS count over selection days 2 and 3 (reads of this peptide / all reads for the bait, averaged over ….

For chain 1 P5M, the screen value was 0.00164 average fractional NGS count over selection days 2 and 3 (reads of this peptide / all reads for the bait, averaged over ….

Regarding chain 1 P5H, the screen value is 0.00214 average fractional NGS count over selection days 2 and 3 (reads of this peptide / all reads for the bait, averaged over ….

With chain 1 P5W, the screen value was 0.000217 average fractional NGS count over selection days 2 and 3 (reads of this peptide / all reads for the bait, averaged over ….

For the variant chain 1 P5I, the screen value was 0.0162 average fractional NGS count over selection days 2 and 3 (reads of this peptide / all reads for the bait, averaged over ….

Turning to chain 1 P5A, the screen value is 0.000329 average fractional NGS count over selection days 2 and 3 (reads of this peptide / all reads for the bait, averaged over ….

chain 1 P5S: the screen value was 0.00042 average fractional NGS count over selection days 2 and 3 (reads of this peptide / all reads for the bait, averaged over ….

Turning to chain 1 P5F, the screen value is 0.00079 average fractional NGS count over selection days 2 and 3 (reads of this peptide / all reads for the bait, averaged over ….

As for chain 1 P5K, the screen value was 0.0018 average fractional NGS count over selection days 2 and 3 (reads of this peptide / all reads for the bait, averaged over ….

Turning to chain 1 P5L, the screen value is 0.00149 average fractional NGS count over selection days 2 and 3 (reads of this peptide / all reads for the bait, averaged over ….
